Substrate in this series: O=S(O)(O)=S
The series is described as follows: purified protein. The class given is biochemical, Pieris rapae. The conditions noted are these: 50 mM KCN, Tris-HCl pH 8.5, 30 °C.

The Km is the substrate concentration at which the rate is half of its maximum. The term Vmax denotes the top rate of the reaction or transport when substrate is in excess.

B1: PrTST2 (Pieris rapae) (protein)
chain: MGNSNSNSTMVDPVRFVSYEDMLKVIHEPEKVIIDVRNPDEIESTGKIPSSINIPLNTVSDTLASMPDDEFLKQYQRPKPSASDELIFYCKSGRRSQEALDKALKLGFSNSKSYLGSWEDWSSKQK
notes: active-site Cys-90
Turning to B1, the Km turned out to be 840 ± 270 µM and the Vmax came to 14.2 µmol/min/mg.
